This data set concerns the target MS2 coat protein, dlFG mutant (Escherichia phage MS2, UniProt P03612, del68-81insG). Description: 4 mM Mg2+; no ligand; RNA-MaP array; 100 mM Tris-HCl pH 7.5, 80 mM KCl, 4 mM MgCl2, 0.1 mg/mL BSA, 1 mM DTT, 0.01 mg/mL yeast tRNA, 0.01% Tween-20; protein 1.5 nM to 3 uM; 37 C (Table S3). Particulars: chain copies: 2; label: tethered by stalled RNA polymerase.

What is called Kd is a measure of binding affinity in units of concentration. Read a high Kd as a looser complex.

B1: Eterna 13336 (Sensor for hsa-mir-208a) (ssRNA)
RNA: AGUCCAGCCAGAGCUGGACAAAAGCAUGUACAUGAGGAUCACCCAUGUUCAUGUACAAGCUUUUUGCUCGUCUUAAA
In turn, B1 registered a dissociation constant Kd of 592 nM.

B2: Eterna 6456081 (Exclusion NG 2) (ssRNA)
RNA: GGAUAGGACAGAGGAUAUACGUGCUAGAGAUACUAGCAAAAUUUCCACACAUGAGGAUCACCCAUGUAGAAGGCUGUCCUAUCG
Take B2: binding was put at a Kd of 5.84 nM.

B3: Eterna 6418068 (Inverted Exclusion NG 1) (ssRNA)
RNA: CGUGCUAUGUAGAAGGCAGAUCUGAUUCAGAUCUGAGGAUAUACAUGAGGAUCACCCAUGUUAUGCACCAGCACGAGAGUGCAC
Take B3: the Kd was determined as 7.12 nM.

B4: Eterna 9534 (Sensor v3, turn-off variant 2) (ssRNA)
RNA: GGUACUAUCACCUGAGUGGUAGUGCCAUAAGCUUGUGAUACAUGAGGAUCACCCAUGUCCUCAUUUGCUCGUCUUAU
Consider B4, for which the dissociation constant (Kd) was 600 nM.

B5: Eterna 11801 (Exclusion 2) (ssRNA)
RNA: AGUAACAGAGGAUAUACUGUUUUAUGUGUUUAUUAUUUUGAACAUGAGGAUCACCCAUGUAGAAGGCUGAAUAA
For the molecule B5, binding was characterised by a dissociation constant (Kd) of 23.2 nM.

B6: Eterna 1774 (Same State - Tryptophan B) (ssRNA)
RNA: CGAUCUUGGUCGGCCGCCACUACACCCACACCAAAUAGGAAAGUAGCGAGUGAUGUUUGUGACGUUAGGACCGGGACCACUGGUC
As to B6, the Kd is above 3000 nM.

B7: Eterna 6415900 (Inverted Small Loop Same State NG 3) (ssRNA)
RNA: UGCUACGUUUCGUAGCAGUGUCAUCGAGAAGGCCCUGACAUGAGGAUCACCCAUGUUGUUACAUGGGAGGAUAUCGAUGAUACA
For the molecule B7, the equilibrium dissociation constant (Kd) is 12.1 nM.

B8: Eterna 13502 (Sensor v3, turn-off variant 2) (ssRNA)
RNA: AGUAGAUCUACGCUUGCGUGGAUCUGCAAUGUAGGUGUUACAUGAGGAUCACCCAUGUCCUCAUUUGCUCGUCUUAG
In turn, B8 returned a dissociation constant (Kd) of 312 nM. This Kd lies about 26-fold higher than the previous one.

B9: Eterna 6030125 (Exclusion 6) (ssRNA)
RNA: GUGCGUGGCUAGGAUAUUGUGGAGUUUUGUCAGCGAGAAGGAGCCACAUGAGGAUCACCCAUGUGGUGUUGCUC
B9: binding was put at a Kd of 175 nM.

B10: Eterna 5989570 (Sensor, turn-off variant 1) (ssRNA)
RNA: GUCAUCACACAUGGGAUCAACAUGAGGAUCACCCAUGUUGUCAAGUUUUUUGCUCGUCUUAUAAUACGUUUGAUGAC
Consider B10, for which binding was characterised by a dissociation constant (Kd) of 30.2 nM.

B11: Eterna 5979585 (Sensor, turn-off variant 1) (ssRNA)
RNA: UACACUGCAUGAGGAUCAAACAUGAGGAUCACCCAUGUAUAGCAGGCUUUUUGUACGUCUUAUAAUUAUGUAGUGUA
The molecule B11 registered a Kd of 15.1 nM.

B12: Eterna 6117727 (Exclusion NG 3) (ssRNA)
RNA: GGUUGUCAUAGUCAUCCUUUCCGUACAUGAGGAUCACCCAUGUAGGAUAUGCUACUCACAGUGUGGCAGAAGGGCGUGUGUCUU
B12: the dissociation constant (Kd) was 17 nM.

B13: Eterna 15484 (Exclusion 5) (ssRNA)
RNA: CUUUGAUGAGGAUAUCGAGGUUAGUACAUGAGGAUCACCCAUGUUAUCCAGGUGUCGGAUCGAGAAGGUAUUGGAC
As for B13, binding was put at a Kd of 14.9 nM.

B14: Eterna 6430466 (Small Loop Same State NG 3) (ssRNA)
RNA: UUCGAGCCAAGGCUCGCGAGUACACAGGAUAUGGAAAGUCACAUGAGGAUCACCCAUGUCCAAAACCAGAAGGGUGAGACUAAG
Take B14: binding was characterised by a dissociation constant (Kd) of 458 nM. This Kd lies about 31-fold higher than the previous one.

B15: Eterna 6061522 (Exclusion 3) (ssRNA)
RNA: AAUUCGGCAGGAUAUACAUGAGGAUCACCCAUGUAAAUUUUUCGUUUAACUUGAAUGUGUAGAAGGGCCAUUUA
The molecule B15 returned an equilibrium dissociation constant (Kd) of 22.8 nM. Against the preceding molecule, the Kd is about 20-fold lower.

B16: Eterna 7745506 (Same State - Arginine B) (ssRNA)
RNA: CCGGGCGGCCGAAGGAGCGGGCGGACCCGAGUGAUGUUCGGGUGGCCCGUGAGGGCCGGUGCCCAGGUAGGUCGCGGAUCCGCCC
In turn, B16 registered an equilibrium dissociation constant (Kd) above 3000 nM.

The values are drawn from publication PMC9170038.
